Source: article PMC10830420

Legend:
[1] = target: ORF2p-His8 core (human (Homo sapiens), UniProt O00370 238-1061); assay: X-ray crystallography (2.1 A); dTTP, Mg2+; DSF: 20 mM HEPES-KOH pH 7.6, 100 mM NaCl, 1 mM DTT, 2 mM Mg acetate, thermal ramp; crystals: protein 3 mg/mL, 50 mM NaCl dilution, 2 mM MgCl2, 2 mM dTTP, 1.3:1
[2] = target: T1, ORF2p core (human (Homo sapiens), UniProt O00370 238-1061); assay: cryo-EM (3.30 A); dTTP, Mg2+; DSF: 20 mM HEPES-KOH pH 7.6, 100 mM NaCl, 1 mM DTT, 2 mM Mg acetate, thermal ramp; crystals: protein 3 mg/mL, 50 mM NaCl dilution, 2 mM MgCl2, 2 mM dTTP, 1.3:1
[3] = target: T1, ORF2p core; assay: cryo-EM (3.66 A); DSF: 20 mM HEPES-KOH pH 7.6, 100 mM NaCl, 1 mM DTT, 2 mM Mg acetate, thermal ramp; crystals: protein 3 mg/mL, 50 mM NaCl dilution, 2 mM MgCl2, 2 mM dTTP, 1.3:1

B1: crystallography RNA template:DNA primer hybrid (DNA:RNA)
RNA: UUAGGAAAGCGC
DNA: GCGCTTTCC
modifications: 3' dideoxy-C on DNA primer
B1: binds [1].

B2: cryo-EM RNA:DNA hybrid (DNA:RNA)
RNA: GGAGCGAAAUUUUCGC
DNA: GCGAAAATTTCGC
modifications: 3' dideoxy-C on DNA primer
B2: binds [2].

B3: oligo-25(A) ssRNA (ssRNA)
RNA: AAAAAAAAAAAAAAAAAAAAAAAAA
B3: binds [3].
